Laboratory results taken from publication PMC13193609, “Polyphosphate modulates the stress-responsive formation of functional RNA-protein condensates in bacteria and mammalian cells”.

Target: Hfq (Escherichia coli, UniProt P0A6X3 1-102)
Assay: EMSA; 25 uM Hfq with 0.5-4 uM FAM-rA30, no polyP; Condensates: 20 mM HEPES pH 7.0, 50 mM NaCl, no crowder; EMSA buffer and temperature not given in the material
Conditions: protein: recombinant; chain copies: 6; label: FAM (5' as printed FAM-(rA)30); single strand

Chain of Hfq (P0A6X3 whole entry): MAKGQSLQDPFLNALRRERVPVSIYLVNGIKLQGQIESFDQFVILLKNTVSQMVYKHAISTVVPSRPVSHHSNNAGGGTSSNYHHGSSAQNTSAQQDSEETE

B1: FAM-rA30 (ssRNA)
RNA: AAAAAAAAAAAAAAAAAAAAAAAAAAAAAA
binding result: binds
